From patent publication US20210230570
Substitutions are numbered along the chain they refer to. Numbers in names are those of the source.

B1: FIXa-R318Y/R338E/T412A (protein)
chain 1: YNSGKLEEFVQGNLERECMEEKCSFEEAREVFENTERTTEFWKQYVDGDQCESNPCLNGGSCKDDINSYECWCPFGFEGKNCELDVTCNIKNGRCEQFCKNSADNKVVCSCTEGYRLAENQKSCEPAVPFPCGRVSVSQTSKLTR
chain 2: VVGGEDAKPGQFPWQVVLNGKVDAFCGGSIVNEKWIVTAAHCVETGVKITVVAGEHNIEETEHTEQKRNVIRIIPHHNYNAAINKYNHDIALLELDEPLVLNSYVTPICIADKEYTNIFLKFGSGYVSGWGRVFHKGYSALVLQYLRVPLVDRATCLESTKFTIYNNMFCAGFHEGGRDSCQGDSGGPHVTEVEGTSFLTGIISWGEECAMKGKYGIYTKVSRYVNWIKEKAKLT
B2: FIXa-Y155F/R318Y/R338E/E410N (protein)
chain 1: B1 chain 1
chain 2: B1 chain 2 with E230N, A232T
B3: FIXa-Y155F/R318Y/R338E/R403E/E410N (protein)
chain 1: B1 chain 1
chain 2: B1 chain 2 with R223E, E230N, A232T
B4: FIXa-D203N/F205T/K228N (protein)
chain 1: B1 chain 1
chain 2: B1 chain 2 with D23N, F25T, K48N, Y138R, E158R, A232T
B5: FIXa-D104N/K106S/K228N/K247N/N249S (protein)
chain 1: B1 chain 1 with D104N, K106S
chain 2: B1 chain 2 with K48N, K67N, N69S, Y138R, E158R, A232T
B6: FIXa-D203N/F205T/R318Y (protein)
chain 1: B1 chain 1
chain 2: B1 chain 2 with D23N, F25T, E158R, A232T
B7: FIXa-D104N/K106S/R318Y/R338E/E410N (protein)
chain 1: B1 chain 1 with D104N, K106S
chain 2: B1 chain 2 with E230N, A232T
B8: FIXa-Y155F/K247N/N249S/R318Y/R403E/E410N (protein)
chain 1: B1 chain 1
chain 2: B1 chain 2 with K67N, N69S, E158R, R223E, E230N, A232T
B9: FIXa-K228N/R318Y/R338E/R403E/E410N (protein)
chain 1: B1 chain 1
chain 2: B1 chain 2 with K48N, R223E, E230N, A232T
B10: FIXa-R318Y/R338E/R403E (protein)
chain 1: B1 chain 1
chain 2: B1 chain 2 with R223E, A232T
B11: FIXa-D104N/K106S/Y155F/K228N/K247N/N249S (protein)
chain 1: B1 chain 1 with D104N, K106S
chain 2: B1 chain 2 with K48N, K67N, N69S, Y138R, E158R, A232T
B12: FIXa-K228N/R338E/R403E (protein)
chain 1: B1 chain 1
chain 2: B1 chain 2 with K48N, Y138R, R223E, A232T
B13: FIXa-D104N/K106S/Y155F/R318Y/R338E/R403E/E410N (protein)
chain 1: B1 chain 1 with D104N, K106S
chain 2: B1 chain 2 with R223E, E230N, A232T
B14: FIXa-Y155F/K247N/N249S/R318Y/R338E/R403E (protein)
chain 1: B1 chain 1
chain 2: B1 chain 2 with K67N, N69S, R223E, A232T
B15: FIXa-R318Y/R338E/E410S (protein)
chain 1: B1 chain 1
chain 2: B1 chain 2 with E230S, A232T
B16: FIXa-R318Y/R403E/E410N (protein)
chain 1: B1 chain 1
chain 2: B1 chain 2 with E158R, R223E, E230N, A232T
B17: FIXa-R338E/R403E/E410N (protein)
chain 1: B1 chain 1
chain 2: B1 chain 2 with Y138R, R223E, E230N, A232T
B18: FIXa-Y155F/K228N/K247N/N249S (protein)
chain 1: B1 chain 1
chain 2: B1 chain 2 with K48N, K67N, N69S, Y138R, E158R, A232T
B19: FIXa-D203N/F205T/R338E/R403E (protein)
chain 1: B1 chain 1
chain 2: B1 chain 2 with D23N, F25T, Y138R, R223E, A232T
B20: FIXa-D203N/F205T/R338A (protein)
chain 1: B1 chain 1
chain 2: B1 chain 2 with D23N, F25T, Y138R, E158A, A232T
B21: FIXa-R318Y/R338E/R403E/T412A (protein)
chain 1: B1 chain 1
chain 2: B1 chain 2 with R223E
B22: FIXa-D203N/F205T/R338E (protein)
chain 1: B1 chain 1
chain 2: B1 chain 2 with D23N, F25T, Y138R, A232T
B23: FIXa-D104N/K106S/I251S/R318Y/R338E/E410N (protein)
chain 1: B1 chain 1 with D104N, K106S
chain 2: B1 chain 2 with I71S, E230N, A232T
B24: FIXa-K247N/N249S/R318Y/R338E/R403E (protein)
chain 1: B1 chain 1
chain 2: B1 chain 2 with K67N, N69S, R223E, A232T
B25: FIXa-D203N/F205T/E410N (protein)
chain 1: B1 chain 1
chain 2: B1 chain 2 with D23N, F25T, Y138R, E158R, E230N, A232T
B26: FIXa-A103N/N105S/Y155F/R318Y/R338E/R403E/E410N (protein)
chain 1: B1 chain 1 with A103N, N105S
chain 2: B1 chain 2 with R223E, E230N, A232T
B27: FIXa-K228N/R318Y/E410N (protein)
chain 1: B1 chain 1
chain 2: B1 chain 2 with K48N, E158R, E230N, A232T
B28: FIXa-D104N/K106S/R318Y/R338E/R403E/E410N (protein)
chain 1: B1 chain 1 with D104N, K106S
chain 2: B1 chain 2 with R223E, E230N, A232T
B29: FIXa-A103N/N105S/R318Y/R338E/R403E/E410N (protein)
chain 1: B1 chain 1 with A103N, N105S
chain 2: B1 chain 2 with R223E, E230N, A232T
B30: FIXa-D203N/F205T/R318Y/E410N (protein)
chain 1: B1 chain 1
chain 2: B1 chain 2 with D23N, F25T, E158R, E230N, A232T
B31: FIXa-K247N/N249S/R318Y/R403E/E410N (protein)
chain 1: B1 chain 1
chain 2: B1 chain 2 with K67N, N69S, E158R, R223E, E230N, A232T

Legend:
[1] = molecular target: plasma purified human AT-III (antithrombin III), in complex with full-length unfractionated heparin (AT-III/UFH)
[2] = molecular target: antithrombin III (plasma purified human AT-III), in complex with unfractionated heparin

Chain of Factor X, P00742 (P00742 whole entry, looked up): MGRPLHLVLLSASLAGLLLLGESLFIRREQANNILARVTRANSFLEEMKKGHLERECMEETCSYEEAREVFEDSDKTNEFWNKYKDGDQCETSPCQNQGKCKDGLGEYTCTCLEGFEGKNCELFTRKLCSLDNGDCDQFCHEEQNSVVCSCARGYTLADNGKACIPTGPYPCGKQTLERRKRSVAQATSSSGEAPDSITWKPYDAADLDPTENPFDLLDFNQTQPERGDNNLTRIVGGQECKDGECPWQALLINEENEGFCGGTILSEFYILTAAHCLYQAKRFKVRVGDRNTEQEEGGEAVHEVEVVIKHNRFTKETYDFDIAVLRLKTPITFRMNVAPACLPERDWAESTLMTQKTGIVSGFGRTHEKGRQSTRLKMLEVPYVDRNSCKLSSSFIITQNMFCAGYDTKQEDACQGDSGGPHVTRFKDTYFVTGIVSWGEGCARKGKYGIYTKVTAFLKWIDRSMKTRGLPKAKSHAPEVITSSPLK
Chain of Factor X (FX), P00742 (P00742 whole entry, looked up): as above

Protein | K0.5 [2] | K0.5-mut/K0.5-wt [2] | KM (Catalytic activity of FIXa variants) (Factor X, P00742) | kcat/KM (M^-1s^-1), FX activation by FIXa in the Xase complex (Factor X (FX), P00742) | kcat/KM (Factor X, P00742) | also measured
B1 | – | – | – | – | – | kcat of FX activation by FIXa in the Xase complex (FVIIIa, PC/PS vesicles, Ca2+) (Factor X (FX), P00742): 7 s⁻¹; K0.5-mut/K0.5-wt (against Catalyst Biosciences WT FIXa) [1]: 396
B2 | 1100 nM | 56.8 | 0.016 µM | 3.7e+08 M⁻¹ s⁻¹ | – | –
B3 | – | – | 0.0304 µM | 1.9e+08 M⁻¹ s⁻¹ | – | –
B4 | 822 nM | 42.5 | 0.0399 µM | – | 1.4e+07 M⁻¹ s⁻¹ | % of WT (kcat/KM) (Factor X, P00742): 30%; kcat/KM for FX activation (Xase assay with FVIIIa, PC/PS vesicles, Ca2+) (Factor X (FX), P00742): 1.4e+07 M⁻¹ s⁻¹
B5 | – | – | – | – | – | K0.5-mut/K0.5-wt (against Catalyst Biosciences WT FIXa) [1]: 2.1
B6 | 7230 nM | 374 | 0.0475 µM | – | 2e+07 M⁻¹ s⁻¹ | % of WT (kcat/KM) (Factor X, P00742): 44%; kcat/KM for FX activation (Xase assay with FVIIIa, PC/PS vesicles, Ca2+) (Factor X (FX), P00742): 2e+07 M⁻¹ s⁻¹
B7 | 6330 nM | 327 | 0.0189 µM | 2.6e+08 M⁻¹ s⁻¹ | – | –
B8 | – | – | – | – | 1e+07 M⁻¹ s⁻¹ | KM (Factor X (FX), P00742): 0.125 µM; kcat of FX activation by FIXa in the Xase complex (FVIIIa, PC/PS vesicles, Ca2+) (Factor X (FX), P00742): 1.2 s⁻¹
B9 | – | – | – | – | – | K0.5-mut/K0.5-wt (against Catalyst Biosciences WT FIXa) [1]: > 517
B10 | > 10000 nM | > 517 | 0.0537 µM | – | 6.2e+07 M⁻¹ s⁻¹ | % of WT (kcat/KM) (Factor X, P00742): 134%; kcat/KM for FX activation (Xase assay with FVIIIa, PC/PS vesicles, Ca2+) (Factor X (FX), P00742): 6.5e+07 M⁻¹ s⁻¹
B11 | – | – | – | – | – | K0.5-mut/K0.5-wt (against Catalyst Biosciences WT FIXa) [1]: 1.6
B12 | 1680 nM | 86.8 | 0.0592 µM | – | – | % of WT (kcat/KM) (Factor X, P00742): 105%; kcat/KM for FX activation (Xase assay with FVIIIa, PC/PS vesicles, Ca2+) (Factor X (FX), P00742): 4.8e+07 M⁻¹ s⁻¹
B13 | – | – | 0.048 µM | 1.8e+08 M⁻¹ s⁻¹ | – | –
B14 | – | – | – | – | 9.5e+07 M⁻¹ s⁻¹ | KM (Factor X (FX), P00742): 0.0673 µM; kcat of FX activation by FIXa in the Xase complex (FVIIIa, PC/PS vesicles, Ca2+) (Factor X (FX), P00742): 5.7 s⁻¹
B15 | – | – | – | – | – | K0.5-mut/K0.5-wt (against Catalyst Biosciences WT FIXa) [1]: 279
B16 | 7070 nM | 366 | 0.0883 µM | 2.5e+07 M⁻¹ s⁻¹ | – | –

Protein | K0.5 [2] | K0.5-mut/K0.5-wt [2] | KM (Catalytic activity of FIXa variants) (Factor X, P00742) | kcat/KM (M^-1s^-1), FX activation by FIXa in the Xase complex (Factor X (FX), P00742) | kcat/KM (Factor X, P00742) | also measured
B17 | 2350 nM | 122 | 0.0455 µM | – | 1.9e+08 M⁻¹ s⁻¹ | % of WT (kcat/KM) (Factor X, P00742): 411%; kcat/KM for FX activation (Xase assay with FVIIIa, PC/PS vesicles, Ca2+) (Factor X (FX), P00742): 7.8e+07 M⁻¹ s⁻¹
B18 | – | – | – | – | – | K0.5-mut/K0.5-wt (against Catalyst Biosciences WT FIXa) [1]: 1.4
B19 | 1520 nM | 78.6 | 0.0511 µM | – | 1.9e+07 M⁻¹ s⁻¹ | % of WT (kcat/KM) (Factor X, P00742): 41%; kcat/KM for FX activation (Xase assay with FVIIIa, PC/PS vesicles, Ca2+) (Factor X (FX), P00742): 1.9e+07 M⁻¹ s⁻¹
B20 | 423 nM | 21.9 | 0.0385 µM | – | 6.2e+07 M⁻¹ s⁻¹ | % of WT (kcat/KM) (Factor X, P00742): 135%; kcat/KM for FX activation (Xase assay with FVIIIa, PC/PS vesicles, Ca2+) (Factor X (FX), P00742): 6.2e+07 M⁻¹ s⁻¹
B21 | – | – | – | – | – | K0.5-mut/K0.5-wt (against Catalyst Biosciences WT FIXa) [1]: > 517
B22 | 1170 nM | 60.5 | 0.0241 µM | – | 1e+08 M⁻¹ s⁻¹ | % of WT (kcat/KM) (Factor X, P00742): 228%; kcat/KM for FX activation (Xase assay with FVIIIa, PC/PS vesicles, Ca2+) (Factor X (FX), P00742): 1e+08 M⁻¹ s⁻¹
B23 | – | – | – | – | – | K0.5-mut/K0.5-wt (against Catalyst Biosciences WT FIXa) [1]: 464
B24 | – | – | – | – | 2.3e+08 M⁻¹ s⁻¹ | KM (Factor X (FX), P00742): 0.0536 µM; kcat of FX activation by FIXa in the Xase complex (FVIIIa, PC/PS vesicles, Ca2+) (Factor X (FX), P00742): 10.5 s⁻¹
B25 | 377 nM | 19.5 | 0.0455 µM | – | 4.2e+07 M⁻¹ s⁻¹ | % of WT (kcat/KM) (Factor X, P00742): 91%; kcat/KM for FX activation (Xase assay with FVIIIa, PC/PS vesicles, Ca2+) (Factor X (FX), P00742): 4.2e+07 M⁻¹ s⁻¹
B26 | – | – | 0.0507 µM | 1.3e+08 M⁻¹ s⁻¹ | – | –
B27 | 475 nM | 24.6 | 0.042 µM | 1.2e+08 M⁻¹ s⁻¹ | – | –
B28 | – | – | 0.0385 µM | 1.7e+08 M⁻¹ s⁻¹ | – | –
B29 | – | – | 0.0447 µM | 1.5e+08 M⁻¹ s⁻¹ | – | –
B30 | – | – | 0.0457 µM | 3.9e+07 M⁻¹ s⁻¹ | – | –
B31 | – | – | – | – | 2.7e+07 M⁻¹ s⁻¹ | KM (Factor X (FX), P00742): 0.111 µM; kcat of FX activation by FIXa in the Xase complex (FVIIIa, PC/PS vesicles, Ca2+) (Factor X (FX), P00742): 2.9 s⁻¹
